Assay results: publication PMC7954794, “Protein context shapes the specificity of SH3 domain-mediated interactions in vivo” (Nature Communications, 2021)

Columns and labels:
Type in all cases: cell-based, Saccharomyces cerevisiae
BUD14 = assay: DHFR-PCA on solid medium, bait BUD14 (Fig. 1B); details: bait BUD14, label = prey; for medrep (log2 median colony size normalized to plate background, PCA score): 4 replicates
Excerpt: (§1) Supplement 41467_2021_21873_MOESM8_ESM.xlsx, sheet "Fig1B" | column: medsize; medrep; Ratio; Score

BEM1-2 = assay: DHFR-PCA on solid medium, bait BEM1-2 (Fig. 1B); details: bait BEM1-2, label = prey; for medrep (log2 median colony size normalized to plate background, PCA score): 2-8 replicates; for Ratio (SH3-deleted/WT medrep): only significant differences showed, PPIs completely lost have a ratio of 0.1 and the gained PPIs 2.5
Excerpt: as §1

BEM1-1 = assay: DHFR-PCA on solid medium, bait BEM1-1 (Fig. 1B); details: bait BEM1-1, label = prey; for medrep (log2 median colony size normalized to plate background, PCA score): 2-8 replicates
Excerpt: as §1

ABP1 = assay: DHFR-PCA on solid medium, bait ABP1 (Fig. 1B); details: bait ABP1, label = prey; for medrep (log2 median colony size normalized to plate background, PCA score): 2-4 replicates
Excerpt: as §1

[1] = system: 575 putative partners (preys) of 22 WT SH3-containing proteins; assay: DHFR-PCA on solid medium, WT and SH3-deleted baits (Fig. 1B); set-up: key to Score: 0: SH3-independent; 1: SH3-dependent PPIs; 2: SH3-inhibited PPIs; details: for medrep (log2 median colony size normalized to plate background, PCA score): label = prey
Outline: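 In S. cerevisiae, 22 SH3-containing baits fused genomically to DHFR F[1,2], either WT or with each SH3 replaced via CRISPR by a poly-Gly/Ser linker, screened against 575 DHFR F[3] preys plus 40 negative controls in 1536 arrays, preys duplicated at randomized positions.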

BOI1 = assay: DHFR-PCA on solid medium, bait BOI1 (Fig. 1B); details: bait BOI1, label = prey
Excerpt: as §1

BOI2 = assay: DHFR-PCA on solid medium, bait BOI2 (Fig. 1B); details: bait BOI2, label = prey; 3-8 replicates
Excerpt: as §1

BBC1 = assay: DHFR-PCA on solid medium, bait BBC1 (Fig. 1B); details: bait BBC1, label = prey
Excerpt: as §1

[2] = only significant differences showed, PPIs completely lost have a ratio of 0.1 and the gained PPIs 2.5

B1: YER149C (protein, UniProt P40091 1-420, looked up)
Protein PEA2: MHKFDLELSRRANPLLFSAERYEEYPLKYDELKQYLLSQNPSHPHHNSRPYTSIDYFDYLLYRSKNDESEIDLDKKLVSEFALYYVQKEHLNSDDLNPTLNELLKLQPKSADWYEMMLRILESINTTGIDQLTKENNNSFPNSKRARSSTNMGGTDKFNKGAYHTDKADDDKNEILQELTSFLMSNSIQKGIDIKPIPLDDPVKFLKNGINSILDTCVSLEKNTSSPPISPNAAAIQEEDSSKKLEELETAFSDLQLAHNFLTKQFENDRAEYVQDIEKLTRTNRELQDKLLNNHSNLSKTEKKLHELEQENKELEKANNKLNSSRHNFGMSSPASSPVTWDPSSPSSVGSPTSGSGSRSLSIMTSEFKKVLTSTQRKYEKELSDEREHRFKLERELALLKNAEANTSLALNRDDPPDML
medrep (log2 median colony size normalized to plate background, PCA score) (BUD14): 1.879 | Ratio (SH3-deleted/WT medrep) (BUD14; [2]): 0.1

B2: YGR238C (protein, UniProt P50090 1-882, looked up)
Kelch repeat-containing …: MVPFKLTNKVPTDTGPSLISAQSVPRPIVFMDNRNNTRIVTPTLPPNQHRGISGASTALPWSPESKNTGKYIWNRVKLKNSPFPRYRHSSSFIVTNDNRIFVTGGLHDQSVYGDVWQIAANADGTSFTSKRIDIDQNTPPPRVGHASTICGNAYVVFGGDTHKLNKNGLLDDDLYLFNINSYKWTIPQPIGRRPLGRYGHKISIIASNPMQTKLYLFGGQVDETYFNDLVVFDLSSFRRPNSHWEFLEPVGDLPPPLTNHTMVAYDNKLWVFGGETPKTISNDTYRYDPAQSEWSKVKTTGEKPPPIQEHASVVYKHLMCVLGGKDTHNAYSNDVYFLNLLSLKWYKLPRMKEGIPQERSGHSLTLMKNEKLLIMGGDKTDYASPNIHDLQTSETDQGEGTLLYTLDLSSLNELCPGIMCESLHAGESFSNSLSGGFTPSKSTESENQEIINILTPRLPDSKVLSYNDIDEGAGSYSSALDDKAFERKSDREEKKPQSSKVDSSINKESPGTGIKVSKKNFPVLRGLTVDSEEYGSSSYKDTSCQKGIPKNLFDDLNLNLQTLRLEAQQKELETARHISQLEKEVQRLMVIKEASKDSNFQTARLKNLEIQKTFLESRINDLKNLLMVKLSQASKLCDQITIQNNGLKTCSEHVTIKRDIIDLENKCDVLKRQNEILVNNMQKITPELHTYLNESSCYLGKLLKSYPTSARPPSSEKDNQIYEKDSLNKIEKVINEMHETVRAKEKLHLETQKLNDERDSLRANLLDNNNKLDALRKLSDGSSKSMDLTKKAIHLSQSELEKYRKNNDDLQKEIDRIKTEQAEQDDKQEQRGAITHGNFDAFHRMKINNLKAELYMSKENRDSLKDELLALKKKLYTLEQKK
medrep (log2 median colony size normalized to plate background, PCA score) (BUD14): 3.527

B3: YCR030C (protein, UniProt P25623 1-870, looked up)
Suppressor of yeast profilin …: MTEQRTKYADSILTTKSPYEATETIRIRLSQVKLLNKDFYLLFKELANLKRNYAQQLRKIIAENEDITKILNAQMIESNVLTPQEMSAFRFNSLGELRNVWDTVIEELKSDLKSSTEYYNTLDQQVVRELKESVENNTSWRESKDLHSKLSKNAASIEHYSKNNENSSHLEEARRQWDQQSPYLFELFETIDYNRLDTLKNCMLRFQTSFSDYLLNTTKECETVMTKFLAFEPQSEIDRFAKDASQYNFQLSSSSKEVVPNNASPASATGARPVSVSNGAANTEREKKSPQKDKRKSAFGNIGHRLASASSSLTHNDLMNNEFSDSTNNSSLKSKKSSHTLRSKVGSIFGRNKTKNKRQQQSSSNSHIQASITETPNNSSTRVSSTATSSIYQKQRRPTYSSSKSNNWTPGEASDTPPLPPHATPKNVDAPVTADTPPAQTFTPSEVPPSTPQQSSPPTAKEPDSSNLPKTVPISISQPPLQPQSKTKPLPVEPASPSISLPTATVDNQPSGQVDSRPLHIRAPALPPSRKQNFIHNRDSQLYDSLPNHGSGATPTSSSLSSIPQERPVSTLSSQITGELRELNPQATGSSTSLVGQSLFQHSSLDTSQFGLNASIAEVLNASFKDGMLQNSQLIGEIALNYLPNSVMNSPLPIGINLRINNGAKFEKVILNQAFIERVAPEEFKVNPSFIDSRTLGAIKYSIKEPIAPIVIHPVWRFESHQASVVLTVKMSPSLPDEISQIVIEDLVVFVNIDGANATSALSKPQGSFSKEKKRITWRFKEPVVLTRNGEGQRLIARFITDGLAHESAKGVITKFTISETDNVALPHSGAGSGITLTCQELDENNPFGGEWLDVNTKRTLTTGNYHGLA
medrep (log2 median colony size normalized to plate background, PCA score) (BEM1-2): 2.035 | Ratio (SH3-deleted/WT medrep) (BEM1-2): 0.1 | medrep (log2 median colony size normalized to plate background, PCA score) (BEM1-1): 2.035 | Ratio (SH3-deleted/WT medrep) (BEM1-1; [2]): 0.1 | medrep (log2 median colony size normalized to plate background, PCA score) (ABP1): 2.201 | medrep (log2 median colony size normalized to plate background, PCA score) (BUD14): 2.234 | medrep (log2 median colony size normalized to plate background, PCA score) ([1]; bait SLA1-2, DHFR-PCA, Replicates 4 (2 for YCR009C, YDR388W)): 3.1776 | Score ([1]; bait SLA1-2, label = prey): 1 | Ratio (SH3-deleted/WT medrep) ([1]; bait SLA1-2, label = prey, only significant differences shown, PPIs completely lost have a ratio of 0.1, gained PPIs 2.5): 0.1 | medrep (log2 median colony size normalized to plate background, PCA score) ([1]; bait SLA1-3, DHFR-PCA, Replicates 4 (2 for YCR009C, YDR388W, YIL033C)): 3.1776 | Score ([1]; bait SLA1-3, label = prey): 0

B4: YHR158C (protein, UniProt P38853 1-1164, looked up)
Kelch repeat-containing …: MAGFSFAKKFTHKKHGKTPSDASISDQSREASLSTPPNEKFFTKQETPQKGRQFSQGYHSNVNKTSSPPMFARKQVSESRIQPSAVPPQQRNVSGPSTTLHKQLSKQREYTVWNRIKLQNSPFPRYRHVASAYVTDKNQIYVIGGLHDQSVYGDTWILTAFDNATRFSTTTIDISEATPPPRVGHAAVLCGNAFVVFGGDTHKVNKEGLMDDDIYLLNINSYKWTVPAPVGPRPLGRYGHKISIIATTQMKTKLYVFGGQFDDTYFNDLAVYDLSSFRRPDSHWEFLKPRTFTPPPITNFTMISYDSKLWVFGGDTLQGLVNDVFMYDPAINDWFIIDTTGEKPPPVQEHATVVYNDLMCVVGGKDEHDAYLNSVYFLNLKSRKWFKLPVFTAGIPQGRSGHSLTLLKNDKILIMGGDKFDYARVEEYDLHTSDIDMQRGTIVYTLDLARIKDLCPGVMDVPTDTPTPRNGNLDLATPVTPTSHQTKNMNVPISAAPLASAPSPAPKDFSDADRLNREVHNRNVSTEHQNQSHPVNSESHLIAEPNILTPYVPSESSQTPVMKITSNKPFDTPTIQKEPDLSETMDPTVGNQRIPSSIYGDNLTPANQIKNNSPILETLPSNEIKTPQNGNIEEIKHLPDADEKIDSTTTFDQEINGDKLGTSSMSKVEEDGNVADEDDEIGVAQMASSPSKDQFKIKHYNESSELSQNNTEIDKLSEPVDITIKKSDTAGHDSANHVIDASDEKNVSPMGDVPTDTKNEEASVPINRDATTEVVDRALFEKLRSELQSLKELTHEKALEAGAHIKELETELWQLKSQKNSGTTKEIDELDSVRLQSKCEILEADNHSLEDKVNELEELVNSKFLDIENLNEVIQFQNEKIKSLELEPNYKEKLEELQIEHENLSRENERLKNESKQHNEDIINNVANYSSQLGSLISHWKENRANSSFLESSSSLISVSDENGEKTVGEPYGDQSRHHRVVINKLTNRLDDLLERSQELTISKEKLSSEYHALKMEHSSLSQDVLVKENEIKKIQNDYKESISSMDSASKALMVSQRELEKYKSLNKKLIDELDELKFKNGVCSENFENGLRSTEESSNNVKNSNSIRENQFNIKINDLKAELFITNQERDDLKSEVLELKKRLLNLENNTKQVNEDADSDLL
medrep (log2 median colony size normalized to plate background, PCA score) (BUD14): 3.841

B5: YML016C (protein, UniProt P26570 2-692, looked up)
Serine/threonine-protein …: GNSSSKSSKKDSHSNSSSRNPRPQVSRTETSHSVKSAKSNKSSRSRRSLPSSSTTNTNSNVPDPSTPSKPNLEVNHQRHSSHTNRYHFPSSSHSHSNSQNELLTTPSSSSTKRPSTSRRSSYNTKAAADLPPSMIQMEPKSPILKTNNSSTHVSKHKSSYSSTYYENALTDDDNDDKDNDISHTKRFSRSSNSRPSSIRSGSVSRRKSDVTHEEPNNGSYSSNNQENYLVQALTRSNSHASSLHSRKSSFGSDGNTAYSTPLNSPGLSKLTDHSGEYFTSNSTSSLNHHSSRDIYPSKHISNDDDIENSSQLSNIHASMENVNDKNNNITDSKKDPNEEFNDIMQSSGNKNAPKKFKKPIDIDETIQKLLDAGYAAKRTKNVCLKNNEILQICIKAREIFLSQPSLLELSPPVKIVGDVHGQYGDLLRLFTKCGFPPSSNYLFLGDYVDRGKQSLETILLLFCYKIKYPENFFLLRGNHECANVTRVYGFYDECKRRCNIKIWKTFIDTFNTLPLAAIVAGKIFCVHGGLSPVLNSMDEIRHVVRPTDVPDFGLINDLLWSDPTDSPNEWEDNERGVSYCYNKVAINKFLNKFGFDLVCRAHMVVEDGYEFFNDRSLVTVFSAPNYCGEFDNWGAVMSVSEGLLCSFELLDPLDSAALKQVMKKGRQERKLANQQQQMMETSITNDNESQQ
medrep (log2 median colony size normalized to plate background, PCA score) (BEM1-2): 2.424 | Ratio (SH3-deleted/WT medrep) (BEM1-2): 0.1 | medrep (log2 median colony size normalized to plate background, PCA score) (BEM1-1): 2.424 | medrep (log2 median colony size normalized to plate background, PCA score) (BOI1; 3-8 replicates): 1.566 | Ratio (SH3-deleted/WT medrep) (BOI1; [2]): 2.5 | medrep (log2 median colony size normalized to plate background, PCA score) (ABP1): 2.329 | Ratio (SH3-deleted/WT medrep) (ABP1; [2]): 1.5236 | medrep (log2 median colony size normalized to plate background, PCA score) (BOI2): 2.013 | medrep (log2 median colony size normalized to plate background, PCA score) (BBC1; 2-4 replicates): 1.933 | Ratio (SH3-deleted/WT medrep) (BBC1; [2]): 0.1
